The results in this text go back to the supplement of paper PMC9170038.

This data set has as its system MS2 coat protein. The experiment in a line: apparent KD of MS2 coat protein; designed switch direction (-1 OFF switch, 1 ON switch): -1; higher = weaker reporter binding. Summed up: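 Normalised cluster fluorescence was curve-fitted, and each design's median over clusters is its apparent KD. Before this, SNAP-549-labelled MS2 coat protein was titrated from 0.7 or 1.5 nM, doubling to 3 µM, over RNA switches transcribed on Illumina chips by stalled E. coli RNA polymerase. Titrations had no input, 200 uM small-molecule ligand, or an oligonucleotide input, and steps lasted 0.8–1.5 h (lowest) to 10–20 min (highest).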

Setting [1] is: Eterna round: R95, input ligand: microRNA oligo, concentration not stated.
[2] abbreviates: input ligand: microRNA oligo, concentration not stated.
Setting [3] is: Eterna round: R95, input ligand: FMN 200 uM.
Setting [4] is: Eterna round: R95, input ligand: none.

In the case of “UUUUAACAUGAGGAUCACCCAUGUGAGGAUAUCGAUAUUUUUAUUAAUAUUAAUAAAACGAGAAGGCACAUUUU [JMF 15] (puzzle: Exclusion 1)”, the “apparent KD of MS2 coat protein” value under setting [1] turned out to be 65.4 nM.

Consider “UUUUACAUAGGAUAUAGUUUCUUUUACAUGAGGAUCACCCAUGUUUCUCUUCUCUCUCUUCUAGAAGGAUGUUUCU [JR_E5_Sub013] (puzzle: Exclusion 5)”, for which, under setting [1], the “apparent KD of MS2 coat protein” value came to 33.5 nM.

Take “UUUUAGCUAGGAUAUACAUUUUUUUUAUUAUCCUCAUUAUUACAUGAGGAUCACCCAUGUAGAAGGAGCAUUUU [My Design] (puzzle: Exclusion 2)”: the “apparent KD of MS2 coat protein” value under setting [1] was 219 nM.

Consider “UUUUAGGCAGGAUAUACAUUUUUUUUAUUAUCCUCAUUAUUACAUGAGGAUCACCCAUGUAGAAGGGCCAUUUU [My Design] (puzzle: Exclusion 2)”, for which, under setting [1], the “apparent KD of MS2 coat protein” value was found to be 38.5 nM.

For “UUUUAGUCAGGAUAUACAUGAGGAUCACCCAUGUAAAAUUUUAAUUUAAUUUUAAGGUGUAGAAGGGACAAUAA [Ex3 #8] (Eterna round: R97, puzzle: Exclusion 3)”, the “apparent KD of MS2 coat protein” value stood at 32.2 nM (input ligand: FMN 200 uM) and 31.3 nM (input ligand: none).

Consider “UUUUGGCAUGUAGGAUAUGGGUCCGAUUAGGAUUUAGAAGGACAUGAGGAUCACCCAUGUGCCCUUACUUGGUCUUUUUUUUUU [EXclNG1-LROPPY18] (Eterna round: R96, puzzle: Exclusion NG 1)”, for which the “apparent KD of MS2 coat protein” value runs as follows: (input ligand: FMN 200 uM) 52.3 nM; under setting [2], 19.2 nM; (input ligand: none) 41.2 nM.

Turning to “UUUUUACAUGAGGAUCACCCAUGUGAGGAUAUGGAGCGCGACCGCGCGGUCGCGUACACCAGAAGGCGCAGGAA [1st #75] (Eterna round: R97, puzzle: Exclusion 1)”, the “apparent KD of MS2 coat protein” value runs as follows: (input ligand: FMN 200 uM) 30.6 nM; (input ligand: none) 24.9 nM.

As for “UUUUUACGAGGAUAUCGUUUUUUUCACAUGAGGAUCACCCAUGUUGUUUAUGUUGCGUUGCGAGAAGGCGUUUGUU [JR_E5_Sub063] (puzzle: Exclusion 5)”, under setting [1], the “apparent KD of MS2 coat protein” value amounted to 24.2 nM.

Consider “UUUUUAUAUGAAGGAUAUACUAAACAUGAGGAUCACCCAUGUGGUGUUGUGAGUGAGAGAGAUAAGUAGAAGGUCAAUUAUUUU [JMF's solution 4] (Eterna round: R96, puzzle: Exclusion NG 2)”, for which the “apparent KD of MS2 coat protein” value came to 348 nM (input ligand: FMN 200 uM), 62.6 nM under setting [2] and 90.8 nM (input ligand: none).

Consider “UUUUUAUAUGAAGGAUAUACUUAACAUGAGGAUCACCCAUGUGGUGUUGUGAGUGAGUGAGUUUAGUAGAAGGUCAAGUAUUAU [JMF's solution 38] (Eterna round: R96, puzzle: Exclusion NG 2)”, for which the “apparent KD of MS2 coat protein” value amounted to 776 nM (input ligand: FMN 200 uM), 265 nM under setting [2] and 464 nM (input ligand: none).

For “UUUUUCGGACAAGCUACGUACAUGAGGAUCACCCAUGUCGGUAGAUUUGAGUAGGUUUGGAUGGAAGCUCGUCUUAU [JR_SV3TOV1_Sub084] (puzzle: Sensor v3, turn-off variant 1)”, the “apparent KD of MS2 coat protein” value runs as follows: under setting [3], 40.9 nM; under setting [1], 53.5 nM; under setting [4], 53.2 nM.

For “UUUUUCUCAGGAUAUACAUGAGGAUCACCCAUGUAUAUUAAAAAUAAUACAUGGGAAUGUAGAAGGGAGCUCAU [Omei Ex3 Pseudoloop 9] (Eterna round: R97, puzzle: Exclusion 3)”, the “apparent KD of MS2 coat protein” value (input ligand: FMN 200 uM) was determined as 141 nM and the “apparent KD of MS2 coat protein” value (input ligand: none) was determined as 161 nM.

In the case of “UUUUUGUCAGGAUAUGCAUGUUUUUUUUUUUUUUUUUUCAUGCAGAAGGGACAUGAGGAUCACCCAUGUAGUUU [Ex4 - 3 - 10] (Eterna round: R96, puzzle: Exclusion 4)”, the “apparent KD of MS2 coat protein” value was determined as 53.7 nM (input ligand: FMN 200 uM), 61.7 nM under setting [2] and 63.2 nM (input ligand: none).

With “UUUUUGUCAGGAUAUGCAUGUUUUUUUUUUUUUUUUUUCAUGCAGAAGGGACAUGAGGAUCACCCAUGUAGUUU [Ex4 - 3 - 10] (puzzle: Exclusion 4)”, the “apparent KD of MS2 coat protein” value was determined as 34.3 nM under setting [3], 23.4 nM under setting [1] and 37.9 nM under setting [4].

On to “UUUUUGUGAGGAUAUCAGUAGUAAAAAAAUAAAAUUACUACUGAGAAGGCACAUGAGGAUCACCCAUGUUUUUU [salish99_ex4_r3_013] (puzzle: Exclusion 4)”, for which the “apparent KD of MS2 coat protein” value under setting [1] is 43.3 nM.

With “UUUUUGUGAGGAUAUCAGUAGUAAAUAAAUAAAAUUACUACUGAGAAGGCACAUGAGGAUCACCCAUGUUUUUU [Mat - Exclusion 4 - Mod of Salish - D68] (puzzle: Exclusion 4)”, the “apparent KD of MS2 coat protein” value under setting [1] came to 41.8 nM.

As for “UUUUUUUUGCGAGGAUAUGCUUUUAGUUAGUUAGCAGAAGGCGCGUUUCUUUUCUCCUCUUCUUACAUGAGGAUCACCCAUGUU [JR_ExcNG1_Sub034] (Eterna round: R96, puzzle: Exclusion NG 1)”, the “apparent KD of MS2 coat protein” value is 55.7 nM (input ligand: FMN 200 uM), 36.7 nM under setting [2] and 54.1 nM (input ligand: none).
